The values that follow come from patent US20080274976A1.

“And” between values parts separate entries of the source, which are not always exact repeats. Equal entries are not always repeated.

Experiment [1] deals with TSha1 K+ channel from trout (trout). The experiment can be described thus: open channel binding, ratio of Table III values.
Experiment [2] shares this target. The experiment can be described thus: closed channel binding, ratio of Table III values.
Experiment [3] has as its target Shaker-Δ6-46 K+ channel (UniProt P08510). Briefly: comparison of open- and closed-state KD, voltage clamp in Xenopus oocytes.

TSha1 K+ channel from trout (trout), sequence (Q9I830 whole entry): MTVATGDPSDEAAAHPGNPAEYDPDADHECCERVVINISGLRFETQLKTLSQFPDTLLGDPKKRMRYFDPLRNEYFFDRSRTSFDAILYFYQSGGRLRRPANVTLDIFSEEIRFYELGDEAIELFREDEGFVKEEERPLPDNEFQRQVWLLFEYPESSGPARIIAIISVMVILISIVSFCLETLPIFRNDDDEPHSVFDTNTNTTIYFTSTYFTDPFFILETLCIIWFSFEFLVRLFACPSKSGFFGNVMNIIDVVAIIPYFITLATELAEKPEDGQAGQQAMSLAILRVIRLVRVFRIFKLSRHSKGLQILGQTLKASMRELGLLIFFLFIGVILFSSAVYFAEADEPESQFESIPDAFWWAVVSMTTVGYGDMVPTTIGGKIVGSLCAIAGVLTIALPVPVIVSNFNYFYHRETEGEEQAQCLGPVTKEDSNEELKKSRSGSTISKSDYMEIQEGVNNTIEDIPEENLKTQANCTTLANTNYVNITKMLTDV
Shaker-Δ6-46 K+ channel, sequence (P08510 other isoform, or with tags, fused parts or gaps mutant): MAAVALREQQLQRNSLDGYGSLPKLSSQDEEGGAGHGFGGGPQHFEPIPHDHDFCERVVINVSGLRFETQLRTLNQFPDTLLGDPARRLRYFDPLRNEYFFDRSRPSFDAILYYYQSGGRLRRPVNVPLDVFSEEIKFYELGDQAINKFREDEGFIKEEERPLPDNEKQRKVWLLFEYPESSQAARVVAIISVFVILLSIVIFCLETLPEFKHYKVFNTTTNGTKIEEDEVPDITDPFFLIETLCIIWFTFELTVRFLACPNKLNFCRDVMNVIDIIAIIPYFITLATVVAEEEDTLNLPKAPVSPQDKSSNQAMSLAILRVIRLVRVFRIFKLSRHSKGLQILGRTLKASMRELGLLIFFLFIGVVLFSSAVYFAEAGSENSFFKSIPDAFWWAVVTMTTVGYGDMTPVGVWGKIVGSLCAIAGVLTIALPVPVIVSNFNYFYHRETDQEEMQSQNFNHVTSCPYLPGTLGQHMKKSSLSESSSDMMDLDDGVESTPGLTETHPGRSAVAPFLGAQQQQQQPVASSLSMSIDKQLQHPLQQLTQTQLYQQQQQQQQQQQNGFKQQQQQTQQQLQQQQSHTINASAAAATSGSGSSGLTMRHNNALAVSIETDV

κM-conotoxin RIIIK (peptide): in experiment [1], the fold higher k(O)on than in the Shaker-Δ6-46 channel was determined as 3 fold and the fold smaller k(O)off than in the Shaker-Δ6-46 channel was determined as 20 fold. The fold higher k(C)on than in the Shaker-Δ6-46 channel in experiment [2] was 4 fold. For the same substance, the fold lower affinity for the open state (0 mV) than for the closed state in experiment [3] was 3 fold and 4 fold.
